Test results taken from PMC4931990.

Target: KDM2B/FBXL10 (UniProt Q8NHM5)
Test: co-IP, western blot
Settings: reference: wild type, EGF-treated; sites S374

binding against the reference: stronger
Substance: c-Fos (from UniProt P01100) S374A, EGF-treated
